Test results as given in patent US20260176358A1 (JIANGSU HENGRUI PHARMACEUTICALS, published 2026).
Positions count from the first letter of the chain named. Where two headings read alike, the source gives them in different places.

T1: rat CGRP (rat, UniProt P01256 83-119)
T1 peptide (looked up): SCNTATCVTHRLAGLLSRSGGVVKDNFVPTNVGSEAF

T2: human CGRP (human, UniProt P06881 83-119)
T2 peptide (looked up): T1 peptide (looked up) with S1A, N3D, D25N, E35K

T3: PACAP38 (UniProt P18509 132-169, biotinylated in the ELISAs)
T3 peptide (looked up): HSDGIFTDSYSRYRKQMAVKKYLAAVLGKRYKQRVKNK

T4: PACAP27 (UniProt P18509 132-158, biotinylated in the ELISAs)
T4 peptide (looked up): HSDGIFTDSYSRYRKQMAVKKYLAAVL

B1: C21H2L1 (antibody, human IgG1, kappa, V domains shown)
VH: EVQLVQSGAEVKKPGASVKVSCKASGYTFTDYYMNWVRQAPGQRLEWIGDINPNQGGTNYNQKFKGRATLTVDKSASTAYMELSSLRSEDTAVYYCASIIIVPNYFDYWGQGTTVTVSS
VL: DIQMTQSPSSLSASVGDRVTITCKASQNVDTNVAWFQQKPGKAPKSLIYSASYRYSGVPSRFSGSGSGTDFTLTISSLQPEDFATYYCQQYNNYPYTFGGGTKVEIKR
notes: also called Biotin-C21H2L1
B2: C28H6L1 (antibody, human IgG1, kappa, V domains shown)
VH: B1 VH with I48M, Q55T, G57V, N59T, A68V, L70I, N104D
VL: B1 VL with L11V, D30G, T31S, F36Y, A43S, S46A, N93S
notes: also called Biotin-C28H6L1
B3: CP-1 (bispecific antibody)
heavy: EVQLVESGGGLVQPGGSLRLSCAASGFAFNNYDMSWVRQAPGKGLEWVATITGGGSYTWYPDSVKGRFTISRDNAKNSLYLQMNSLRAEDTAVYYCARLTGYDQAGAMDYWGQGTTVTVSSASTKGPSVFPLAPSSKSTSGGTAALGCLVKDYFPEPVTVSWNSGALTSGVHTFPAVLQSSGLYSLSSVVTVPSSSLGTQTYICNVNHKPSNTKVDKKVEPKSCEVQLVQSGAEVKKPGASVKVSCKASGYTFTDYYMNWVRQAPGQCLEWIGDINPNQGGTNYNQKFKGRATLTVDKSASTAYMELSSLRSEDTAVYYCASIIIVPNYFDYWGQGTTVTVSSGGGGSGGGGSGGGGSDIQMTQSPSSLSASVGDRVTITCKASQNVDTNVAWFQQKPGKAPKSLIYSASYRYSGVPSRFSGSGSGTDFTLTISSLQPEDFATYYCQQYNNYPYTFGCGTKVEIKGGGDKTHTCPPCPAPELLGGPSVFLFPPKPKDTLYITREPEVTCVVVDVSHEDPEVKFNWYVDGVEVHNAKTKPREEQYNSTYRVVSVLTVLHQDWLNGKEYKCKVSNKALPAPIEKTISKAKGQPREPQVYTLPPSRDELTKNQVSLTCLVKGFYPSDIAVEWESNGQPENNYKTTPPVLDSDGSFFLYSKLTVDKSRWQQGNVFSCSVMHEALHNHYTQKSLSLSPGK
light: DIVLTQSPDSLAVSLGERATINCKASQSVDYDGDSYMTWYQQKPGQPPKLLIYAASHLDSGIPDRFSGSGSGTDFTLTISSLQAEDVAVYYCQQSNEDPWTFGGGTKVEIKRTVAAPSVFIFPPSDEQLKSGTASVVCLLNNFYPREAKVQWKVDNALQSGNSQESVTEQDSKDSTYSLSSTLTLSKADYEKHKVYACEVTHQGLSSPVTKSFNRGEC
notes: Format 2+2, anti-PACAP Fab (P14H2L3) and anti-CGRP scFv (C21H5L3), IgG1 (YTE) Fc; also called Biotin-CP-1

Tests used:
[1] = target: T1, rat CGRP; assay: ELISA, coated CGRP
[2] = target: T2, human CGRP; assay: ELISA, coated CGRP
[3] = target: CGRP; assay: cell-based or functional assay
[4] = target: T1, rat CGRP; assay: SPR, Biacore 8K, antibody captured on Protein A chip, 1:1 model
Procedure: A Protein A biosensor chip was used to affinity-capture IgG, and a molecule sample was then allowed to flow through the surface of the chip. Reaction signals were detected in real time using a Biacore 8K system to obtain association and dissociation curves. After the dissociation in each experimental cycle was complete, the biosensor chip was washed and regenerated 3 times with 50 mM NaOH. Data fitting was performed using a 1:1 model.

[5] = target: T2, human CGRP; assay: SPR, Biacore 8K, 25 C, biotinylated antibody on SA chip, 1:1 model
Procedure: First, the test antibodies ([…] for the mAbs and 4 μg/mL for the diabodies), biotinylated (indicated by Biotin-), were each coupled onto an SA biosensor chip. Then samples of the antigen human CGRP were sequentially injected in ascending order for 180 s, followed by dissociation. After the test was finished, fitting was performed using a 1:1 binding model.

[6] = target: CGRP; assay: cell-based or functional assay; remark: listed apart in the source
[7] = target: T3, PACAP38; assay: cell-based or functional assay
[8] = target: T4, PACAP27; assay: ELISA, antibody on coated anti-human Fc, biotinylated peptide
Procedure: (§1) Plates were coated with 1 μg/mL anti-human Fc and blocked, and the antibodies, serially diluted, were added. […] The plates were incubated for 1 h and washed, and a horseradish peroxidase-labeled streptavidin secondary antibody was then added. After incubation, color development was performed.

[9] = target: T3, PACAP38; assay: as above
Procedure: as §1

Binder | EC50 [1] | EC50 [2] | IC50, inhibition of cAMP production in SK-N-MC cells [3] | Kd [4] | koff [4] | kon [4] | Kd [5] | koff [5] | kon [5] | IC50, inhibition of cAMP production in SK-N-MC cells [6] | IC50, inhibition of cAMP production in SH-SY5Y cells [7] | EC50 [8] | EC50 [9]
B1 | 4.26 nM | 2.3 nM | 1.98 nM | 0.103 nM | 0.000232 s⁻¹ | 2.25e+06 M⁻¹ s⁻¹ | 0.00381 nM | 1.92e-05 s⁻¹ | 5.04e+06 M⁻¹ s⁻¹ | 1.25 nM |  |  | 
B2 | 5.29 nM | 1.26 nM | 1.61 nM | 0.0674 nM | 0.000139 s⁻¹ | 2.06e+06 M⁻¹ s⁻¹ | 0.00479 nM | 2.41e-05 s⁻¹ | 5.03e+06 M⁻¹ s⁻¹ | 2.49 nM |  |  | 
B3 |  |  | 2.66 nM | 0.778 nM | 0.00116 s⁻¹ | 1.5e+06 M⁻¹ s⁻¹ | 0.00715 nM | 1.77e-05 s⁻¹ | 2.48e+06 M⁻¹ s⁻¹ |  | 4.31 nM | 0.28 nM | 0.15 nM
